This is an account of results in publication doi:10.1101/2022.08.23.504973 (bioRxiv, 2022).

The target in the assay is KEAP1 (Kelch-like ECH-associated protein 1), recombinant (UniProt Q14145 1-624). Kind of assay: SPR.
KEAP1 (Kelch-like ECH-associated protein 1), recombinant, sequence (Q14145 whole entry): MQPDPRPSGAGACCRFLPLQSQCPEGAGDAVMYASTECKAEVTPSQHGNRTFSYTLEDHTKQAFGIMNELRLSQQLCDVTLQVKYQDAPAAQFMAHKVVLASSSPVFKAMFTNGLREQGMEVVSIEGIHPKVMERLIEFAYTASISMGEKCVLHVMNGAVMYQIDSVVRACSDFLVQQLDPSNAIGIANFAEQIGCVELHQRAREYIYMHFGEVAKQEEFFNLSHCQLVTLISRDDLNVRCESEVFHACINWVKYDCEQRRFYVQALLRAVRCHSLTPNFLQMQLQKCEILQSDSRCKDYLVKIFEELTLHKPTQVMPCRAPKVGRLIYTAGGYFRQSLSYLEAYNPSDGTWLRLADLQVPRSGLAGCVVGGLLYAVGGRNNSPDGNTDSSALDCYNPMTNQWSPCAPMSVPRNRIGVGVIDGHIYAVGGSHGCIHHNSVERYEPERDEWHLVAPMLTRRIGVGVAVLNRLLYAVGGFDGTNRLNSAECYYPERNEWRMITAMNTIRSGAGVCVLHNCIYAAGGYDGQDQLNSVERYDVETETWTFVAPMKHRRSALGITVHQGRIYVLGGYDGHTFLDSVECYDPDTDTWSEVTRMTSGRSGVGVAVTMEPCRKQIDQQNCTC

B1: BDNF mature recombinant (brain-derived neurotrophic factor) (ligand, human, UniProt P23560 129-247, looked up)
chain: HSDPARRGELSVCDSISEWVTAADKKTAVDMSGGTVTVLEKVPVSKGQLKQYFYETKCNPMGYTKEGCRGIDKRHWNSQCRTTQSYVRALTMDSKKRIGWRFIRIDTSCVCTLTIKRGR
For the molecule B1, the dissociation constant (Kd) stood at 2.71 nM, the koff was 0.00225 s⁻¹ and the kon turned out to be 828000 M⁻¹ s⁻¹.
